In patent US7662583B2, “Bioreactor containing cells expressing glycosyltransferase nucleic acids isolatable from Arabidopsis” (The University of York, priority 2003, dated 2010):

B1: UGT71C3: Arabidopsis recombinant glycosyltransferase, FIG. 2 (protein, listed as Arabidopsis thaliana)
chain: MKAEAEIIFVTYPSPGHLLVSIEFAKSLIKRDDRIHTITILYWALPLAPQAHLFAKSLVASQPRIRLLALPDVQNPPPLELFFKAPEAYILESTKKTVPLVRDALSTLVSSRKESGSVRVVGLVIDFFCVPMIEVANELNLPSYIFLTCNAGFLSMMKYLPERHRITTSELDLSSGNVEHPIPGYVCSVPTKVLPPGLFVRESYEAWVEIAEKFPGAKGILVNSVTCLEQNAFDYFARLDENYPPVYPVGPVLSLKDRPSPNLDASDRDRIMRWLEDQPESSIVYICFGSLGIIGKLQIEEIAEALELTGHRFLWSIRTNPTEKASPYDLLPEGFLDRTASKGLVCDWAPQVEVLAHKALGGFVSHCGWNSVLESLWFGVPIATWPMYAEQQLNAFSMVKELGLAVELRLDYVSAYGEIVKAEEIAGAIRSLMDGEDTPRKRVKEMAEAARNALMDGGSSFVAVKRFLDELIGGDV
B2: UGT73B4: Arabidopsis recombinant glycosyltransferase (protein, UniProt Q7Y232 1-484, looked up)
UDP-glycosyltransferase 73B4: MNREQIHILFFPFMAHGHMIPLLDMAKLFARRGAKSTLLTTPINAKILEKPIEAFKVQNPDLEIGIKILNFPCVELGLPEGCENRDFINSYQKSDSFDLFLKFLFSTKYMKQQLESFIETTKPSALVADMFFPWATESAEKIGVPRLVFHGTSSFALCCSYNMRIHKPHKKVASSSTPFVIPGLPGDIVITEDQANVTNEETPFGKFWKEVRESETSSFGVLVNSFYELESSYADFYRSFVAKKAWHIGPLSLSNRGIAEKAGRGKKANIDEQECLKWLDSKTPGSVVYLSFGSGTGLPNEQLLEIAFGLEGSGQNFIWVVSKNENQVGTGENEDWLPKGFEERNKGKGLIIRGWAPQVLILDHKAIGGFVTHCGWNSTLEGIAAGLPMVTWPMGAEQFYNEKLLTKVLRIGVNVGATELVKKGKLISRAQVEKAVREVIGGEKAEERRLRAKELGEMAKAAVEEGGSSYNDVNKFMEELNGRK
B3: UGT78D3: Arabidopsis recombinant glycosyltransferase, FIG. 6 (protein, UniProt Q9LFK0 1-459, looked up)
UDP-glycosyltransferase 78D3: MAKPSQPTRDSHVAVLVFPFGTHAAPLLAVTCRLATAAPSTVFSFFSTARSNSSLLSSDIPTNIRVHNVDDGVPEGFVLTGNPQHAVELFLEAAPEIFRREIKAAETEVGRKFKCILTDAFLWLAAETAAAEMKASWVAYYGGGATSLTAHLYTDAIRENVGVKEVGERMEETIGFISGMEKIRVKDTQEGVVFGNLDSVFSKTLHQMGLALPRATAVFINSFEELDPTFTNDFRSEFKRYLNIGPLALLSSPSQTSTLVHDPHGCLAWIEKRSTASVAYIAFGRVATPPPVELVAIAQGLESSKVPFVWSLQEMKMTHLPEGFLDRTREQGMVVPWAPQVELLNHEAMGVFVSHGGWNSVLESVSAGVPMICRPIFGDHAINARSVEAVWEIGVTISSGVFTKDGFEESLDRVLVQDDGKKMKVNAKKLEELAQEAVSTKGSSFENFGGLLDEVVNFG
B4: UGT76D1: Arabidopsis recombinant glycosyltransferase, FIG. 7 (protein, listed as Arabidopsis thaliana)
chain: MAEIRQRRVLMVPAPFQGHLPSMMNLASYLSSQGFSITIVRNEFNFKDISHNFPGIKFFTIKDGLSESDVKSLGLLEFVLELNSVCEPLLKEFLTNHDDVVDFIIYDEFVYFPRRVAEDMNLPKMVFSPSSAATSISRCVLMENQSNGLLPPQDARSQLEETVPEFHPFRFKDLPFTAYGSMERLMILYENVSNRASSSGIIHNSSDCLENSFITTAQEKWGVPVYPVGPLHMTNSAMSCPSLFEEERNCLEWLEKQETSSVIYISMGSLAMTQDIEAVEMAMGFVQSNQPFLWVIRPGSINGQESLDFLPEQFNQTVTDGRGFVVKWAPQKEVLRHRAVGGFWNHGGWNSCLESISSGVPMICRPYSGDQRVNTRLMSHVWQTAYEIEGELERGAVEMAVRRLIVDQEGQEMRMRATILKEEVEASVTTEGSSHNSLNNLVHAIMMQIDEQ
B5: UGT71C4: Arabidopsis recombinant glycosyltransferase, FIG. 3 (protein, listed as Arabidopsis thaliana)
chain: MVKETELIFIPVPSTGHILVHIEFAKRLINLDHRIHTITILNLSSPSSPHASVFARSLIASQPKIRLHDLPPIQDPPPFDLYQRAPEAYIVKLIKKNTPLIKDAVSSIVASRRGGSDSVQVAGLVLDLFCNSLVKDVGNELNLPSYIYLTCNARYLGMMKYIPDRHRKIASEFDLSSGDEELPVPGFINAIPTKFMPPGLFNKEAYEAYVELAPRFADAKGILVNSFTELEPHPFDYFSHLEKFPPVYPVGPILSLKDRASPNEEAVDRDQIVGWLDDQPESSVVFLCFGSRGSVDEPQVKEIARALELVGCRFLWSIRTSGDVETNPNDVLPEGFMGRVAGRGLVCGWAPQVEVLAHKAIGGFVSHCGWNSTLESLWFGVPVATWPMYAEQQLNAFTLVKELGLAVDLRMDYVSSRGGLVTCDEIARAVRSLMDGGDEKRKKVKEMADAARKALMDGGSSSLATARFIAELFEDGSSC

test: UGT enzyme reaction with quercetin (recombinant UGTs, HPLC); format: biochemical, Arabidopsis; conditions: quercetin glucosylated at 3-OH; 0.5 mM quercetin, 5 mM UDP-glucose, 30° C.
Procedure: The assay mix (200 μl) contained 2 μg of recombinant protein, 100 mM Tris-HCl, pH 7.0, 5 mM UDP-glucose 1.4 mM 2-mercaptoethanol, and 0.5 mM of quercetin. The reaction was carried out at 30° C. for 1 h, and was quick-frozen and stored at −20° C. prior to the reverse-phase HPLC analysis
Reverse-phase HPLC (SpectraSYSTEM HPLC systems and UV6000LP Photodiode Array Detector, ThermoQuest) analysis was carried using a Columbus 5μ C18 column (250×4.60 mm, PHENOMENEX). Quercetin glucosides were separated from the aglycone by a linear gradient of 10-75% acetonitrile in H2O (all solution contained 0.1% trifluoroacetic acid) at 1 ml/mm over 20 mm and monitored at 370 nm. Cytokinin glucosides were separated from their aglycone by a liner gradient of 10-100% methanol in H2O (for N6-isopentenyladenine (iP), N6-benzyladenine and kinetin) or 10-60% methanol in H2O (for trans-zeatin and dihydrozeatin) at 1 ml/min over 20 mm. All solution contained 0.25% acetic acid and 0.04% triethylamine, trifluoroacetic acid. The separation was monitored at 206 nm and 252 nm. The identity of the products was confirmed by comparison with authentic gluco sides.
The activity of Arabidopsis recombinant UGTs towards quercetin was determined using the platform developed previously^15.

| Molecule | Specific activity (nkat/mg protein) 3-O-glc |
| --- | --- |
| B1 | 0.11 nkat/mg protein |
| B2 | 12.14 nkat/mg protein |
| B3 | 0.16 nkat/mg protein |
| B4 | — (Activity lower than 0.02 nkat/mg protein has been considered as trace activity and is not shown in the Table.) |
| B5 | 1.33 nkat/mg protein |

same assay, conditions: quercetin glucosylated at 3′-OH; 0.5 mM quercetin, 5 mM UDP-glucose, 30° C.

| Molecule | Specific activity (nkat/mg protein) 3′-O-glc |
| --- | --- |
| B1 | — (Activity lower than 0.02 nkat/mg protein has been considered as trace activity and is not shown in the Table.) |
| B2 | — (Activity lower than 0.02 nkat/mg protein has been considered as trace activity and is not shown in the Table.) |
| B3 | — (Activity lower than 0.02 nkat/mg protein has been considered as trace activity and is not shown in the Table.) |
| B4 | — (Activity lower than 0.02 nkat/mg protein has been considered as trace activity and is not shown in the Table.) |
| B5 | — (Activity lower than 0.02 nkat/mg protein has been considered as trace activity and is not shown in the Table.) |

same assay, conditions: quercetin glucosylated at 4′-OH; 0.5 mM quercetin, 5 mM UDP-glucose, 30° C.

| Molecule | Specific activity (nkat/mg protein) 4′-O-glc |
| --- | --- |
| B1 | — (Activity lower than 0.02 nkat/mg protein has been considered as trace activity and is not shown in the Table.) |
| B2 | — (Activity lower than 0.02 nkat/mg protein has been considered as trace activity and is not shown in the Table.) |
| B3 | — (Activity lower than 0.02 nkat/mg protein has been considered as trace activity and is not shown in the Table.) |
| B4 | — (Activity lower than 0.02 nkat/mg protein has been considered as trace activity and is not shown in the Table.) |
| B5 | — (Activity lower than 0.02 nkat/mg protein has been considered as trace activity and is not shown in the Table.) |

same assay, conditions: quercetin glucosylated at 7-OH; 0.5 mM quercetin, 5 mM UDP-glucose, 30° C.

| Molecule | Specific activity (nkat/mg protein) 7-O-glc |
| --- | --- |
| B1 | — (Activity lower than 0.02 nkat/mg protein has been considered as trace activity and is not shown in the Table.) |
| B2 | 0.18 nkat/mg protein |
| B3 | — (Activity lower than 0.02 nkat/mg protein has been considered as trace activity and is not shown in the Table.) |
| B4 | 0.24 nkat/mg protein |
| B5 | 0.63 nkat/mg protein |
